The supplement of paper PMC5998384

What was measured:
HeLa Kyoto [1] = experiment: solubility change mitosis vs G1/S (difference of NP-40 vs SDS log2 ratios) (log2 ratio difference); higher = more soluble in mitosis
HeLa Kyoto [2] = experiment: solubility in G1/S (NP-40 vs SDS abundance) (log2 ratio); higher = more soluble; details: cell cycle stage: G1/S
HeLa Kyoto [3] = experiment: melting temperature (median over replicates), in situ; higher = more thermally stable
HeLa Kyoto [4] = experiment: thermal stability score vs G1/S (z-score of summed log2 fold changes over temperatures); higher = more thermally stable than in G1/S
[5] = cell cycle stage: early G1 (4.5 h after nocodazole release)
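For melting temperature (median over replicates), in situ in this document: HeLa Kyoto cells synchronized by double thymidine or nocodazole block, proteins quantified by TMT10plex mass spectrometry, three independent biological replicates.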
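For solubility change mitosis vs G1/S (difference of NP-40 vs SDS log2 ratios) in this document: synchronized HeLa Kyoto cells (double thymidine block for G1/S, nocodazole release for mitosis), protein amounts in NP-40 versus SDS lysates quantified by mass spectrometry, three biological replicates.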
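For solubility in G1/S (NP-40 vs SDS abundance) in this document: HeLa Kyoto cells arrested at G1/S by double thymidine block, proteins quantified by TMT10plex mass spectrometry in mild NP-40 versus SDS extracts, three biological replicates.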
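For thermal stability score vs G1/S (z-score of summed log2 fold changes over temperatures) in this document: synchronized HeLa Kyoto cells, proteins quantified by TMT10plex mass spectrometry, three biological replicates, mitosis taken 0.5 h after nocodazole release, G1/S directly after double thymidine block.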

Sequence | solubility change mitosis (log2) (HeLa Kyoto [1]) | solubility in G1/S (log2) (HeLa Kyoto [2]) | melting temperature (HeLa Kyoto [3]; cell cycle stage: G1/S) [°C] | melting temperature (HeLa Kyoto [3]; cell cycle stage: mitosis) [°C] | thermal stability score (HeLa Kyoto [4]; [5]) | thermal stability score (HeLa Kyoto [4]; cell cycle stage: mitosis)
MAFRGWRPPPPPLLLLLLWVTGQAAPVAGLGSDAELQIERRFVPDECPRTVRSGDFVRYHYVGTFPDGQKFDSSYDRDSTFNVFVGKGQLITGMDQALVGMCVNERRFVKIPPKLAYGNEGVSGVIPPNSVLHFDVLLMDIWNSEDQVQIHTYFKPPSCPRTIQVSDFVRYHYNGTFLDGTLFDSSHNRMKTYDTYVGIGWLIPGMDKGLLGMCVGEKRIITIPPFLAYGEDGDGKDIPGQASLVFDVALLDLHNPKDSISIENKVVPENCERISQSGDFLRYHYNGTLLDGTLFDSSYSRNRTFDTYIGQGYVIPGMDEGLLGVCIGEKRRIVVPPHLGYGEEGRGNIPGSAVLVFDIHVIDFHNPSDSISITSHYKPPDCSVLSKKGDYLKYHYNASLLDGTLLDSTWNLGKTYNIVLGSGQVVLGMDMGLREMCVGEKRTVIIPPHLGYGEAGVDGEVPGSAVLVFDIELLELVAGLPEGYMFIWNGEVSPNLFEEIDKDGNGEVLLEEFSEYIHAQVASGKGKLAPGFDAELIVKNMFTNQDRNGDGKVTAEEFKLKDQEAKHDEL [FKBP9] | -0.0483 | 0.21 | 53.7 | 54.5 | 4.29 | 4.83
MAFVPVIPESYSHVLAEFESLDPLLSALRLDSSRLKCTSIAVSRKWLALGSSGGGLHLIQKEGWKHRLFLSHREGAISQVACCLHDDDYVAVATSQGLVVVWELNQERRGKPEQMYVSSEHKGRRVTALCWDTAILRVFVGDHAGKVSAIKLNTSKQAKAAAAFVMFPVQTITTVDSCVVQLDYLDGRLLISSLTRSFLCDTEREKFWKIGNKERDGEYGACFFPGRCSGGQQPLIYCARPGSRMWEVNFDGEVISTHQFKKLLSLPPLPVITLRSEPQYDHTAGSSQSLSFPKLLHLSEHCVLTWTERGIYIFIPQNVQVLLWSEVKDIQDVAVCRNELFCLHLNGKVSHLSLISVERCVERLLRRGLWNLAARTCCLFQNSVIASRARKTLTADKLEHLKSQLDHGTYNDLISQLEELILKFEPLDSACSSRRSSISSHESFSILDSGIYRIISSRRGSQSDEDSCSLHSQTLSEDERFKEFTSQQEEDLPDQCCGSHGNEDNVSHAPVMFETDKNETFLPFGIPLPFRSPSPLVSLQAVKESVSSFVRKTTEKIGTLHTSPDLKVRPELRGDEQSCEEDVSSDTCPKEEDTEEEKEVTSPPPEEDRFQELKVATAEAMTKLQDPLVLFESESLRMVLQEWLSHLEKTFAMKDFSGVSDTDNSSMKLNQDVLLVNESKKGILDEDNEKEKRDSLGNEESVDKTACECVRSPRESLDDLFQICSPCAIASGLRNDLAELTTLCLELNVLNSKIKSTSGHVDHTLQQYSPEILACQFLKKYFFLLNLKRAKESIKLSYSNSPSVWDTFIEGLKEMASSNPVYMEMEKGDLPTRLKLLDDEVPFDSPLLVVYATRLYEKFGESALRSLIKFFPSILPSDIIQLCHHHPAEFLAYLDSLVKSRPEDQRSSFLESLLQPESLRLDWLLLAVSLDAPPSTSTMDDEGYPRPHSHLLSWGYSQLILHLIKLPADFITKEKMTDICRSCGFWPGYLILCLELERRREAFTNIVYLNDMSLMEGDNGWIPETVEEWKLLLHLIQSKSTRPAPQESLNGSLSDGPSPINVENVALLLAKAMGPDRAWSLLQECGLALELSEKFTRTCDILRIAEKRQRALIQSMLEKCDRFLWSQQA [HPS5] | -0.108 | -0.142 | 48.6 | 49.5 | 1.53 | 1.55
MAGAGPAPGLPGAGGPVVPGPGAGIPGKSGEERLKEMEAEMALFEQEVLGAPVPGIPTAVPAVPTVPTVPTVEAMQVPAAPVIRPIIATNTYQQVQQTLEARAAAAATVVPPMVGGPPFVGPVGFGPGDRSHLDSPEAREAMFLRRAAVAPQRAPILRPAFVPHVLQRADSALSSAAAGPRPMALRPPHQALVGPPLPGPPGPPMMLPPMARAPGPPLGSMAALRPPLEEPAAPRELGLGLGLGLKEKEEAVVAAAAGLEEASAAVAVGAGGAPAGPAVIGPSLPLALAMPLPEPEPLPLPLEVVRGLLPPLRIPELLSLRPRPRPPRPEPPPGLMALEVPEPLGEDKKKGKPEKLKRCIRTAAGSSWEDPSLLEWDADDFRIFCGDLGNEVNDDILARAFSRFPSFLKAKVIRDKRTGKTKGYGFVSFKDPSDYVRAMREMNGKYVGSRPIKLRKSMWKDRNLDVVRKKQKEKKKLGLR [RBM42] | 0.019 | 0.0912 | 51.6 | 50.1 | -2.37 | -2.6
MAGAIIENMSTKKLCIVGGILLVFQIIAFLVGGLIAPGPTTAVSYMSVKCVDARKNHHKTKWFVPWGPNHCDKIRDIEEAIPREIEANDIVFSVHIPLPHMEMSPWFQFMLFILQLDIAFKLNNQIRENAEVSMDVSLAYRDDAFAEWTEMAHERVPRKLKCTFTSPKTPEHEGRYYECDVLPFMEIGSVAHKFYLLNIRLPVNEKKKINVGIGEIKDIRLVGIHQNGGFTKVWFAMKTFLTPSIFIIMVWYWRRITMMSRPPVLLEKVIFALGISMTFINIPVEWFSIGFDWTWMLLFGDIRQGIFYAMLLSFWIIFCGEHMMDQHERNHIAGYWKQVGPIAVGSFCLFIFDMCERGVQLTNPFYSIWTTDIGTELAMAFIIVAGICLCLYFLFLCFMVFQVFRNISGKQSSLPAMSKVRRLHYEGLIFRFKFLMLITLACAAMTVIFFIVSQVTEGHWKWGGVTVQVNSAFFTGIYGMWNLYVFALMFLYAPSHKNYGEDQSNGDLGVHSGEELQLTTTITHVDGPTEIYKLTRKEAQE [WLS] | -0.236 | -0.178 | 54.2 | 54.2 | 0.834 | 2.64
MAGDSEQTLQNHQQPNGGEPFLIGVSGGTASGKSSVCAKIVQLLGQNEVDYRQKQVVILSQDSFYRVLTSEQKAKALKGQFNFDHPDAFDNELILKTLKEITEGKTVQIPVYDFVSHSRKEETVTVYPADVVLFEGILAFYSQEVRDLFQMKLFVDTDADTRLSRRVLRDISERGRDLEQILSQYITFVKPAFEEFCLPTKKYADVIIPRGADNLVAINLIVQHIQDILNGGPSKRQTNGCLNGYTPSRKRQASESSSRPH [UCK2] | 0.265 | 0.28 | 52.2 | 52.9 | 0.367 | -1.36
MAGEGDQQDAAHNMGNHLPLLPAESEEEDEMEVEDQDSKEAKKPNIINFDTSLPTSHTYLGADMEEFHGRTLHDDDSCQVIPVLPQVMMILIPGQTLPLQLFHPQEVSMVRNLIQKDRTFAVLAYSNVQEREAQFGTTAEIYAYREEQDFGIEIVKVKAIGRQRFKVLELRTQSDGIQQAKVQILPECVLPSTMSAVQLESLNKCQIFPSKPVSREDQCSYKWWQKYQKRKFHCANLTSWPRWLYSLYDAETLMDRIKKQLREWDENLKDDSLPSNPIDFSYRVAACLPIDDVLRIQLLKIGSAIQRLRCELDIMNKCTSLCCKQCQETEITTKNEIFSLSLCGPMAAYVNPHGYVHETLTVYKACNLNLIGRPSTEHSWFPGYAWTVAQCKICASHIGWKFTATKKDMSPQKFWGLTRSALLPTIPDTEDEISPDKVILCL [CRBN] | -0.303 | -0.152 | 53.7 | 53.4 | -0.823 | -2.4
MAGGEDRGDGEPVSVVTVRVQYLEDTDPFACANFPEPRRAPTCSLDGALPLGAQIPAVHRLLGAPLKLEDCALQVSPSGYYLDTELSLEEQREMLEGFYEEISKGRKPTLILRTQLSVRVNAILEKLYSSSGPELRRSLFSLKQIFQEDKDLVPEFVHSEGLSCLIRVGAAADHNYQSYILRALGQLMLFVDGMLGVVAHSDTIQWLYTLCASLSRLVVKTALKLLLVFVEYSENNAPLFIRAVNSVASTTGAPPWANLVSILEEKNGADPELLVYTVTLINKTLAALPDQDSFYDVTDALEQQGMEALVQRHLGTAGTDVDLRTQLVLYENALKLEDGDIEEAPGAGGRRERRKPSSEEGKRSRRSLEGGGCPARAPEPGPTGPASPVGPTSSTGPALLTGPASSPVGPPSGLQASVNLFPTISVAPSADTSSERSIYKARFLENVAAAETEKQVALAQGRAETLAGAMPNEAGGHPDARQLWDSPETAPAARTPQSPAPCVLLRAQRSLAPEPKEPLIPASPKAEPIWELPTRAPRLSIGDLDFSDLGEDEDQDMLNVESVEAGKDIPAPSPPLPLLSGVPPPPPLPPPPPIKGPFPPPPPLPLAAPLPHSVPDSSALPTKRKTVKLFWRELKLAGGHGVSASRFGPCATLWASLDPVSVDTARLEHLFESRAKEVLPSKKAGEGRRTMTTVLDPKRSNAINIGLTTLPPVHVIKAALLNFDEFAVSKDGIEKLLTMMPTEEERQKIEEAQLANPDIPLGPAENFLMTLASIGGLAARLQLWAFKLDYDSMEREIAEPLFDLKVGMEQLVQNATFRCILATLLAVGNFLNGSQSSGFELSYLEKVSEVKDTVRRQSLLHHLCSLVLQTRPESSDLYSEIPALTRCAKVDFEQLTENLGQLERRSRAAEESLRSLAKHELAPALRARLTHFLDQCARRVAMLRIVHRRVCNRFHAFLLYLGYTPQAAREVRIMQFCHTLREFALEYRTCRERVLQQQQKQATYRERNKTRGRMITETEKFSGVAGEAPSNPSVPVAVSSGPGRGDADSHASMKSLLTSRPEDTTHNRRSRGMVQSSSPIMPTVGPSTASPEEPPGSSLPSDTSDEIMDLLVQSVTKSSPRALAARERKRSRGNRKSLRRTLKSGLGDDLVQALGLSKGPGLEV [FHOD1] | -0.13 | 0.185 | 48 | 48.1 | 1.05 | 2.72
MAGGPPKALPSTGPHSLRDMPHPLAGSSSEEAVGGDSTPSPDLLMARSFGDKDLILPNGGTPAGTSSPASSSSLLNRLQLDDDIDGETRDLFVIVDDPKKHVCTMETYITYRITTKSTRVEFDLPEYSVRRRYQDFDWLRSKLEESQPTHLIPPLPEKFVVKGVVDRFSEEFVETRRKALDKFLKRITDHPVLSFNEHFNIFLTAKDLNAYKKQGIALLTRMGESVKHVTGGYKLRTRPLEFAAIGDYLDTFALKLGTIDRIAQRIIKEEIEYLVELREYGPVYSTWSALEGELAEPLEGVSACIGNCSTALEELTDDMTEDFLPVLREYILYSDSMKSVLKKRDQVQAEYEAKLEAVALRKEDRPKVPADVEKCQDRMECFNADLKADMERWQNNKRQDFRQLLMGMADKNIQYYEKCLMAWESIIPLLQEKQEAK [SNX30] | -0.31 | 0.262 | 50.1 | 50.7 | 0.333 | 1.76
MAGKSSLFKVILLGDGGVGKSSLMNRYVTNKFDTQLFHTIGVEFLNKDLEVDGHFVTMQIWDTAGQERFRSLRTPFYRGSDCCLLTFSVDDSQSFQNLSNWKKEFIYYADVKEPESFPFVILGNKIDISERQVSTEEAQAWCRDNGDYPYFETSAKDATNVAAAFEEAVRRVLATEDRSDHLIQTDTVNLHRKPKPSSSCC [RAB9A] | -0.207 | -0.0893 | 54.3 | 54.2 | -1.81 | -3.52
MAGLPRRIIKETQRLLAEPVPGIKAEPDESNARYFHVVIAGPQDSPFEGGTFKLELFLPEEYPMAAPKVRFMTKIYHPNVDKLGRICLDILKDKWSPALQIRTVLLSIQALLSAPNPDDPLANDVAEQWKTNEAQAIETARAWTRLYAMNNI [UBE2N] | 0.111 | 0.641 | 52.1 | 52.1 | -0.982 | -0.49
MAGLTVRDPAVDRSLRSVFVGNIPYEATEEQLKDIFSEVGPVVSFRLVYDRETGKPKGYGFCEYQDQETALSAMRNLNGREFSGRALRVDNAASEKNKEELKSLGTGAPVIESPYGETISPEDAPESISKAVASLPPEQMFELMKQMKLCVQNSPQEARNMLLQNPQLAYALLQAQVVMRIVDPEIALKILHRQTNIPTLIAGNPQPVHGAGPGSGSNVSMNQQNPQAPQAQSLGGMHVNGAPPLMQASMQGGVPAPGQMPAAVTGPGPGSLAPGGGMQAQVGMPGSGPVSMERGQVPMQDPRAAMQRGSLPANVPTPRGLLGDAPNDPRGGTLLSVTGEVEPRGYLGPPHQGPPMHHVPGHESRGPPPHELRGGPLPEPRPLMAEPRGPMLDQRGPPLDGRGGRDPRGIDARGMEARAMEARGLDARGLEARAMEARAMEARAMEARAMEARAMEVRGMEARGMDTRGPVPGPRGPIPSGMQGPSPINMGAVVPQGSRQVPVMQGTGMQGASIQGGSQPGGFSPGQNQVTPQDHEKAALIMQVLQLTADQIAMLPPEQRQSILILKEQIQKSTGAP [CSTF2] | 0.172 | 0.323 | 53 | 53.2 | -0.643 | -0.392
